Target: GroEL (Escherichia coli, UniProt P0A6F5 2-548)
Test: proteinase K protection assay

GroEL, sequence (P0A6F5 2-548): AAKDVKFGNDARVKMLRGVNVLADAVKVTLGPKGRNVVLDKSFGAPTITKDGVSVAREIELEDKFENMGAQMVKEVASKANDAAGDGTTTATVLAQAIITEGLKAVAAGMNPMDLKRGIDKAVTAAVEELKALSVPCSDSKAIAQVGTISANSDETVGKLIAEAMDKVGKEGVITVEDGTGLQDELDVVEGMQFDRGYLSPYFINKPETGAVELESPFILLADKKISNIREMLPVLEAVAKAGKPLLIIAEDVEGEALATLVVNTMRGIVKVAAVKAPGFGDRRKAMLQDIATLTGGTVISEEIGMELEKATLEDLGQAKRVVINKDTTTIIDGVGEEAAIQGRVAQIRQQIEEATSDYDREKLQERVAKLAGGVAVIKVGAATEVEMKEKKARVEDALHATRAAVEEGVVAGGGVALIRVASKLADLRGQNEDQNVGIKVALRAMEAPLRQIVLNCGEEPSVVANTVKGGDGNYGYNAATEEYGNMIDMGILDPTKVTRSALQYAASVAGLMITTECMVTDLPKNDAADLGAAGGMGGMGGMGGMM

B1: GroES (natural protein)
chain: MNIRPLHDRVIVKRKEVETKSAGGIVLTGSAAAKSTRGEVLAVGNGRILENGEVKPLDVKVGDIVIFNDGYGVKSEKIDNEEVLIMSESDILAIVEA
- binding result: binds

Source: article PMC4730846 (Science Advances, 2015)
